The text below walks through data of patent US20130209454A1.

Usually IC50 stands for the point on the concentration scale where inhibition reaches its midpoint. Broadly, the Kd is the concentration at which binding is half-saturated. A word on the koff: it is the rate constant with which the complex falls apart. Low values mean a long-lived complex, high ones a short-lived complex. The term kon denotes a measure of how fast the partners come together. Higher therefore signals faster complex formation.

In assay [1] the target is Env of HIV-1 strain CAP210.2.00.E8 (HIV-1). In words: cell-based or functional assay.
Assay [2] has as its target Env of HIV-1 strain SC422661.8 (HIV-1). Nature of the assay: cell-based or functional assay.
Assay [3] addresses Env of HIV-1 strain CAP45.2.00.G3 (HIV-1). In words: cell-based or functional assay.
The target in assay [4] is Env of HIV-1 strain Du172.17 (HIV-1). Nature of the assay: cell-based or functional assay.
In assay [5] the target is Env of HIV-1 strain TRO.11 (HIV-1). In words: cell-based or functional assay.
Assay [6] concerns the target Env of HIV-1 strain AC10.0.29 (HIV-1). Nature of the assay: cell-based or functional assay.
Assay [7] has as its target HIV-1 strain CAP45.2.00.G3 envelope (gp120) (HIV-1). Nature of the assay: cell-based or functional assay.
Assay [8] concerns the target HIV-1 strain TRO.11 envelope (gp120) (HIV-1). In words: cell-based or functional assay.
Assay [9] concerns the target HIV-1 strain SC422661.8 envelope (gp120) (HIV-1). Nature of the assay: cell-based or functional assay.
In assay [10] the target is HIV-1 strain AC10.0.29 envelope (gp120) (HIV-1). Nature of the assay: cell-based or functional assay.
For assay [11], the target named is HIV-1 strain Du172.17 envelope (gp120) (HIV-1). In words: cell-based or functional assay.
Assay [12] concerns the target HIV-1 strain CAP210.2.00.E8 envelope (gp120) (HIV-1). Nature of the assay: cell-based or functional assay.
The target of assay [13] is HIV-1 strain ZM214M.PL15 envelope (gp120) (HIV-1). Nature of the assay: cell-based or functional assay.
Assay [14] deals with HIV-1 strain QH0692.42 envelope (gp120) (HIV-1). Nature of the assay: cell-based or functional assay.
The target of assay [15] is HIV-1 strain T257-31 envelope (gp120) (HIV-1). Nature of the assay: cell-based or functional assay.
For assay [16], the target named is 93TH057 gp120 core (HIV-1). Nature of the assay: structure PDB 3NGB, AreaIMol, 1.4 Å probe.
Assay [17] concerns the target 93TH057 gp120 core (HIV-1).
In assay [18] the target is Q259.d2.17 gp120 core (HIV-1).
Assay [19] addresses CAP244.2.00.D3 gp120 core (HIV-1).
The target of assay [20] is HIV-1 Env of strain C2101.c01 (HIV-1). In words: cell-based or functional assay.
Assay [21] has as its target HIV-1 Env of strain 3016.v5.c45 (HIV-1). Nature of the assay: cell-based or functional assay.
Assay [22] deals with HIV-1 Env of strain TRO.11 (HIV-1). In words: cell-based or functional assay.
For assay [23], the target named is HIV-1 Env of strain AC10.0.29 (HIV-1). In words: cell-based or functional assay.
For assay [24], the target named is HIV-1 Env of strain SC422661.8 (HIV-1). Nature of the assay: cell-based or functional assay.
Assay [25] addresses HIV-1 Env of strain CAP45.2.00.G3 (HIV-1). In words: cell-based or functional assay.
In assay [26] the target is HIV-1 Env of strain T257-31 (HIV-1). In words: cell-based or functional assay.
Assay [27] has as its target HIV-1 Env of strain QH0692.42 (HIV-1). In words: cell-based or functional assay.
The target of assay [28] is HIV-1 Env of strain ZM214M.PL15 (HIV-1). Nature of the assay: cell-based or functional assay.
Assay [29] addresses gp120 (ZM135M.PL10a) of the CD4-gp120 complex structure (HIV-1). Nature of the assay: CD4-gp120 complex structure, AreaIMol, 1.4 Å probe.

Bounds are passed on as bounds.

NIH45-46 Fab (C-terminal 6x-His tagged heavy chain, SPR), sequence (VH): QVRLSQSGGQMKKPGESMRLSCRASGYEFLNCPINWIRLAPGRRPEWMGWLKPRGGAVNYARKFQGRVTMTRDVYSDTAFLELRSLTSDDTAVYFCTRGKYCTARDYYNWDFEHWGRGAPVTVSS
NIH45-46 Fab (C-terminal 6x-His tagged heavy chain, SPR), sequence (V domain): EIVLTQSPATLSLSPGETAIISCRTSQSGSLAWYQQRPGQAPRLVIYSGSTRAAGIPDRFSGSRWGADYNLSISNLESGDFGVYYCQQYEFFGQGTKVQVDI

Take 3BNC60 T54I (antibody): the IC50 in assay [1] is over 50 µg/mL; in assay [2], 0.054 µg/mL; in [3] it was over 50 µg/mL; in assay [4], 21.8 µg/mL; in [5], 0.027 µg/mL; in assay [6] it was over 50 µg/mL.

For the substance 3BNC60 T54Y (antibody), the IC50 worked out at 2.9 µg/mL in assay [1], 0.02 µg/mL in [2], 2.2 µg/mL in assay [4] and 0.012 µg/mL in assay [5].

Turning to 3BNC117 T54W IgG (antibody), the neutralization IC50 in assay [7] stood at 23 µg/mL; in assay [8] it was 0.6 µg/mL; in assay [9], 0.07 µg/mL; in assay [10], 2.8 µg/mL; in assay [11] it was 0.9 µg/mL; in [12], 2.8 µg/mL.

3BNC60 T54W (antibody): the IC50 in assay [1] turned out to be 2.6 µg/mL; in [2], 0.031 µg/mL; in assay [4] it was 2.2 µg/mL; in assay [5], 0.021 µg/mL.

Turning to 3BNC60 T54W IgG (antibody), the neutralization IC50 is 19 µg/mL in assay [7]; 0.06 µg/mL in assay [8]; 0.1 µg/mL in assay [9]; 3.1 µg/mL in assay [10]; 0.04 µg/mL in assay [11]; 5 µg/mL in assay [12].

As for 3BNC60 T54N (antibody), the IC50 is 16.3 µg/mL in assay [1]; 0.025 µg/mL in [2]; 16.7 µg/mL in [3]; 0.662 µg/mL in assay [4]; 0.008 µg/mL in [5]; over 50 µg/mL in [6].

Take 3BNC60 T54A (antibody): the IC50 in assay [1] was 0.1 µg/mL; in [2], 0.027 µg/mL; in [3], over 50 µg/mL; in assay [4], over 50 µg/mL; in assay [5], 0.003 µg/mL; in assay [6], 2.6 µg/mL.

Turning to 3BNC60 T54R (antibody), the IC50 in [1] was 5 µg/mL; in [2] it was 0.014 µg/mL; in assay [3], over 50 µg/mL; in assay [4] it was 2.15 µg/mL; in assay [5] it was 0.006 µg/mL; in assay [6], over 50 µg/mL.

Regarding 3BNC60 T54P (antibody), the IC50 in assay [1] was over 50 µg/mL; in [2], 0.143 µg/mL; in assay [3], over 50 µg/mL; in assay [4], over 50 µg/mL; in assay [5], 0.048 µg/mL; in [6], over 50 µg/mL.

In the case of “VRC01 heavy chain paired with the NIH45-46 light chain (IgG) (antibody)”, the neutralization IC50 is 1.8 µg/mL in assay [13]; 1.2 µg/mL in [14]; over 50 µg/mL in [7]; 24 µg/mL in assay [8]; 0.4 µg/mL in assay [9]; 4.5 µg/mL in assay [10]. The neutralization IC50 in [15] was determined as 15 µg/mL.

3BNC60 T54F (antibody): the IC50 amounted to 3.4 µg/mL in assay [1], 0.025 µg/mL in assay [2], 2.2 µg/mL in [4] and 0.023 µg/mL in assay [5].

For the substance 3BNC60 T54D (antibody), the IC50 in assay [1] was over 50 µg/mL; in [2], 0.556 µg/mL; in assay [3], over 50 µg/mL; in [4] it was over 50 µg/mL; in assay [5], 0.036 µg/mL; in assay [6], over 50 µg/mL.

On to 3BNC60 T54Q (antibody), for which the IC50 worked out at 7.4 µg/mL in assay [1]; 0.038 µg/mL in assay [2]; 6.66 µg/mL in [3]; 0.243 µg/mL in assay [4]; 0.006 µg/mL in assay [5]; 9.04 µg/mL in assay [6].

3BNC60 T54S (antibody): the IC50 is 14.7 µg/mL in assay [1]; 0.036 µg/mL in [2]; 41.7 µg/mL in assay [3]; 0.92 µg/mL in assay [4]; 0.02 µg/mL in [5]; over 50 µg/mL in assay [6].

For “VRC01 Fab (structure of VRC01-93TH057, PDB code 3NGB)”, in assay [16], the buried surface area on gp120, Inner domain & bridging sheet came to 157 Å^2; the buried surface area on gp120, Loop D + NAG was 433 Å^2; the buried surface area on gp120, Outer domain exit loop was 57 Å^2; the buried surface area on gp120, V5 was found to be 328 Å^2. In assay [16], the buried surface area on gp120, β-15/α-3 + NAG turned out to be 208 Å^2; the buried surface area on gp120, β-24 came to 43 Å^2; the buried surface area, Interface on Fab or CD4 was found to be 1210 Å^2; the buried surface area, Total gp120 was 1220 Å^2. Moreover, the total buried surface area, light chain with gp120 in assay [16] was determined as 681 Å^2. In assay [16] (VRC01 heavy chain), this substance displayed a buried surface area, CDR3 of 117 Å^2; a buried surface area, Interface on gp120 of 882 Å^2; a buried surface area, Total Fab of 892 Å^2. In [16] (VRC01 light chain), this substance displayed a buried surface area, CDR3 of 165 Å^2; a buried surface area, Interface on gp120 of 367 Å^2; a buried surface area, Total Fab of 314 Å^2.

For 3BNC60 T54L (antibody), the IC50 was 30.7 µg/mL in assay [1]; 0.034 µg/mL in assay [2]; over 50 µg/mL in assay [3]; 3.59 µg/mL in [4]; 0.019 µg/mL in assay [5]; over 50 µg/mL in assay [6].

In assay [17], “NIH45-46 Fab (C-terminal 6x-His tagged heavy chain, SPR)” had a Kd of 160 nM, a koff of 0.0048 s⁻¹ and a kon of 31000 M⁻¹ s⁻¹. In [18], this substance registered a Kd of 190 nM, a koff of 0.01 s⁻¹ and a kon of 55000 M⁻¹ s⁻¹. Besides, in assay [19], the Kd was 97 nM, the off-rate (koff) was 0.0067 s⁻¹ and the kon amounted to 69000 M⁻¹ s⁻¹.

For 3BNC60 T54K (antibody), the IC50 in assay [1] is over 50 µg/mL; in assay [2], 0.024 µg/mL; in assay [3], over 50 µg/mL; in assay [4], over 50 µg/mL; in assay [5] it was 0.029 µg/mL; in [6], over 50 µg/mL.

Turning to 3BNC60 T54V (antibody), the IC50 in assay [1] is 42.8 µg/mL; in assay [2] it was 0.039 µg/mL; in [3], over 50 µg/mL; in assay [4], 7.36 µg/mL; in [5], 0.024 µg/mL; in [6] it was over 50 µg/mL.

With 3BNC60 T54G (antibody), the IC50 in assay [1] is 11.9 µg/mL; in assay [2], 0.01 µg/mL; in [3], over 50 µg/mL; in assay [4] it was 0.02 µg/mL; in [5], 0.0003 µg/mL; in [6], 0.623 µg/mL.

For VRC01 IgG (antibody), the neutralization IC50 in assay [20] was 0.36 µg/mL; in [13], 0.8 µg/mL; in assay [14], 0.7 µg/mL; in assay [7] it was 1.8 µg/mL; in assay [8] it was 0.5 µg/mL; in assay [21], 0.16 µg/mL. In addition, the neutralization IC50 in [9] was found to be 0.2 µg/mL; in assay [10], 0.8 µg/mL; in assay [15] it was 1 µg/mL.

Regarding NIH45-46 Y99dA IgG (antibody), the neutralization IC50 in assay [22] is over 50 µg/mL; in assay [23], 4.4 µg/mL; in [24] it was 0.08 µg/mL; in assay [25], over 50 µg/mL; in assay [26] it was 2.4 µg/mL; in assay [27], 2.1 µg/mL. Moreover, in assay [28], the neutralization IC50 came to 1.1 µg/mL.

With 3BNC60 T54H (antibody), the IC50 in assay [1] was 1.6 µg/mL; in assay [2], 0.003 µg/mL; in [3] it was 6.64 µg/mL; in assay [4], 0.055 µg/mL; in [5], 0.011 µg/mL; in assay [6], over 50 µg/mL.

As to 3BNC60 T54E (antibody), the half-inhibitory concentration (IC50) in assay [1] is over 50 µg/mL; in [2] it was 0.075 µg/mL; in [3] it was over 50 µg/mL; in [4] it was over 50 µg/mL; in [5], 0.004 µg/mL; in [6], 2.92 µg/mL.

As to 3BNC60 T54M (antibody), the half-maximal inhibitory concentration (IC50) in assay [1] is 25 µg/mL; in assay [2] it was 0.032 µg/mL; in [3], over 50 µg/mL; in assay [4], 1.43 µg/mL; in assay [5], 0.019 µg/mL; in assay [6], over 50 µg/mL.

For the substance “CD4 (from UniProt P01730 26-208) (receptor)”, in [29], the buried surface area on gp120, Inner domain & bridging sheet was 400 Å^2; the buried surface area on gp120, Loop D + NAG stood at 136 Å^2; the buried surface area on gp120, Outer domain exit loop came to 97 Å^2; the buried surface area on gp120, V5 amounted to 155 Å^2. Moreover, in assay [29], the buried surface area on gp120, β-15/α-3 + NAG worked out at 263 Å^2; the buried surface area on gp120, β-24 is 14 Å^2; the buried surface area, Interface on Fab or CD4 turned out to be 1060 Å^2; the buried surface area, Total gp120 is 973 Å^2.
